The text below walks through data of patent publication US20130172262A1 (ALPHABETA, published 2013).

The labels stand for the following.
B1: recombinant human Bri2(90-236) (other, not shown: small tags and cut ends)
chain: GIKYIKDDVILNEPSADAPAALYQTIEENIKIFEEEEVEFISVPVPEFADSDPANIVHDFNKKLTAYLDLNLDKCYVIPLNTSIVMPPRNLLELLINIKAGTYLPQSYLIHEHMVITDRIENIDHLGFFIYRLCHDKETYKLQRRET

One experiment has as its target human Aβ1-40 peptide (human). The experiment can be described thus: cell-based or functional assay.
For experiment [1], the target named is B1. The experiment can be described thus: ESI-MS. As for the experimental part: Protein and peptides were mixed at 22° C. directly before analysis at a final protein concentration of 20 μM and a final peptide concentration of 50 μM. Data was acquired using a QTOF Ultima API mass spectrometer (Waters, Milford, Mass., USA) equipped with a Z-spray source operated in the positive-ion mode. Samples were introduced via nano-electrospray using metal-plated borosilicate glass capillary needles (Proxeon, Denmark). The source temperature was 80° C., the capillary voltage 1.7 kV, and the cone and RF lens 1 potentials were 100 and 38 V, respectively. The mass spectrometer was operated in single-reflector mode at a resolution of 10 000 (full width half maximum definition), and the mass scale was calibrated using myoglobin. Scans were acquired at a rate of 1 scan per 2 sec between 500 and 4000 m/z. The collision gas was argon at 5.2×10⁻⁵ mbar. Mass spectra were smoothed using the Waters MassLynx software.
Mass spectra were recorded to investigate the presence and stoichiometry of protein-peptide complexes in the gas phase.

Chain of human Aβ1-40 peptide (human) (peptide, as listed by the source): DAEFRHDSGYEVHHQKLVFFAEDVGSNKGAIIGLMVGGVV

On to B1, for which the “fold prolongation of the half time of Aβ1-40 aggregation, ThT fluorescence” value with human Aβ1-40 peptide is about 4.5 times.
In the case of H-KFFEYNGKKFFE-OH (also called synthetic peptide), the binding result in experiment [1] is recorded as “binds”.
